Reference: article PMC3341379

Target: Clathrin triskelion with attached Gd-DTPA-ITC, as assembled into clathrin cages (rat (endogenous in rat liver and brain)) (UniProt P11442)
Assay: negative-stain transmission electron microscopy; cages assembled from modified triskelia mixed with AP-2 proteins 3:1 (v/v), dialysed against 50 mM MES Na pH 6.5, 100 mM NaCl, 2 mM DTT at 4°C; cages pelleted at 60,000 rpm and resuspended in 20 mM MES Na pH 6.2, 2 mM DTT; 0.05 mg/ml on carbon-coated grids, 1% uranyl acetate

Clathrin triskelion with attached Gd-DTPA-ITC, as assembled into clathrin cages (from UniProt P11442 1-1675; P08081 1-248) (complex)
stoichiometry N (triskelia per cage): 36
